Measured values: PMC8556680

Columns and labels:
[1] = target: T1, GST-ZNF410 ZF1-ZF5 (Homo sapiens, UniProt Q86VK4 217-366); assay: fluorescence polarization
T1 sequence: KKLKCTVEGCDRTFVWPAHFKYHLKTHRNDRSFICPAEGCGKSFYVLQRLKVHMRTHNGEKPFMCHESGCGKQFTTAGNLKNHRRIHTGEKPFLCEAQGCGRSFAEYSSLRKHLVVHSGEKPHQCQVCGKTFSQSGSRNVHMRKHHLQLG

[2] = target: T1, GST-ZNF410 ZF1-ZF5; assay: fluorescence polarization; remark: listed apart in the source

B1: 17-bp consensus oligo (FAM) (dsDNA)
DNA 1: CACATCCCATAATAATG
DNA 2: CATTATTATGGGATGTG
B1 gave a Kd [1] of 22 nM.

B2: negative control oligo (FAM) (dsDNA)
DNA 1: TCCACTGCCAGGACCTTT
DNA 2: AAAAGGTCCTGGCAGTGG
B2: no binding [2].
